# Assay results as given in article PMC7954794, “Protein context shapes the specificity of SH3 domain-mediated interactions in vivo” (Nature Communications, 2021).
# B1: FUS1 (protein, UniProt P11710 1-512, looked up)
# Nuclear fusion protein FUS1: MVATIMQTTTTVLTTVAAMSTTLASNYISSQASSSTSVTTVTTIATSIRSTPSNLLFSNVAAQPKSSSASTIGLSIGLPIGIFCFGLLILLCYFYLKRNSVSISNPPMSATIPREEEYCRRTNWFSRLFWQSKCEDQNSYSNRDIEKYNDTQWTSGDNMSSKIQYKISKPIIPQHILTPKKTVKNPYAWSGKNISLDPKVNEMEEEKVVDAFLYTKPPNIVHIESSMPSYNDLPSQKTVSSKKTALKTSEKWSYESPLSRWFLRGSTYFKDYGLSKTSLKTPTGAPQLKQMKMLSRISKGYFNESDIMPDERSPILEYNNTPLDANDSVNNLGNTTPDSQITSYRNNNIDLITARPHSVIYGTTAQQTLETNFNDHHDCNKSTEKHELIIPTPSKPLKKRKKRRQSKMYQHLQHLSRSKPLPLTPNSKYNGEASVQLGKTYTVIQDYEPRLTDEIRISLGEKVKILATHTDGWCLVEKCNTQKGSIHVSVDDKRYLNEDRGIVPGDCLQEYD
# Tested on: growth of yeast strains under 51 stress conditions
# Experiment: Growth assays in 51 stress conditions (Fig. 1E-F, S2D, S5B)
# Type: cell-based, Saccharomyces cerevisiae
# Set-up: key to Growth (Fig. S2D) / growth of ABP1 SH3-swapped strains in stress condition: log2 colony size, average of median per strain (growth score)
# Details: ABP1 SH3-swapped strains
# Method in brief: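 Colony sizes at 74 h on 51 stress media (37 °C) were log2 transformed, corrected for plate effects, and averaged across two plates as per-plate medians (growth score). Strains arrayed in 12 replicates with WT border, grown first on YPD for two days at 30 °C.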
molecule,measurement,setting,value
B1,Growth (Fig. S2D),Bathophenanthroline.0.1uM,10.7893
same,Growth (Fig. S2D),Bathophenanthroline.10uM,10.6947
same,Growth (Fig. S2D),Bathophenanthroline.1uM,10.778
same,Growth (Fig. S2D),CaCl2.100mM,10.8206
same,Growth (Fig. S2D),CaCl2.250mM,10.8008
same,Growth (Fig. S2D),CaCl2.500mM,10.319
same,Growth (Fig. S2D),Caffein.10mM,10.109
same,Growth (Fig. S2D),Caffein.2mM,11.0074
same,Growth (Fig. S2D),CdCl2.100uM,9.381
same,Growth (Fig. S2D),CdCl2.10uM,10.9194
same,Growth (Fig. S2D),CdCl2.50uM,9.89
same,Growth (Fig. S2D),CuSO4.1mM,10.4955
same,Growth (Fig. S2D),CuSO4.5mM,8.084
same,Growth (Fig. S2D),Cycloheximide.0.05.uM,11.1072
same,Growth (Fig. S2D),Cycloheximide.0.2.uM,10.666
same,Growth (Fig. S2D),Cycloheximide.0.5.uM,10.227
same,Growth (Fig. S2D),DMSO.2.,11.051
same,Growth (Fig. S2D),DMSO.6.,9.944
same,Growth (Fig. S2D),DMSO.8.,9.179
same,Growth (Fig. S2D),Ethanol.2.,10.7876
same,Growth (Fig. S2D),Ethanol.6.,10.3273
same,Growth (Fig. S2D),Ethanol.8.,10.1194
same,Growth (Fig. S2D),Galactose.2.,10.7919
same,Growth (Fig. S2D),Glycerol.2.,9.646
same,Growth (Fig. S2D),Hydroxyurea.25mM,10.8071
same,Growth (Fig. S2D),Hygromycin.190uM,11.0027
same,Growth (Fig. S2D),Hygromycin.19uM,11.0061
same,Growth (Fig. S2D),Hygromycin.95uM,11.0532
same,Growth (Fig. S2D),MMS.0.004.,10.9625
same,Growth (Fig. S2D),MMS.0.02.,10.7139
same,Growth (Fig. S2D),MMS.0.04.,10.0597
same,Growth (Fig. S2D),Menadione.100uM,10.6065
same,Growth (Fig. S2D),Menadione.200uM,10.4266
same,Growth (Fig. S2D),Menadione.50uM,10.8061
same,Growth (Fig. S2D),NaCl.0.25M,10.6954
same,Growth (Fig. S2D),NaCl.1M,9.8389
same,Growth (Fig. S2D),Nitroquinoline.10uM,10.6415
same,Growth (Fig. S2D),Nitroquinoline.50uM,10.6237
same,Growth (Fig. S2D),Nystatin.0.01uM,11.0226
same,Growth (Fig. S2D),Nystatin.0.1uM,11.0679
same,Growth (Fig. S2D),Raffinose.2.,11.0059
same,Growth (Fig. S2D),Rapamycin.10nM,9.886
same,Growth (Fig. S2D),Rapamycin.50nM,9.356
same,Growth (Fig. S2D),SC.pH3,10.3927
same,Growth (Fig. S2D),SC.pH6,11.04
same,Growth (Fig. S2D),SDS.0.01.,10.9614
same,Growth (Fig. S2D),SDS.0.02.,10.9777
same,Growth (Fig. S2D),SDS.0.05.,10.8408
same,Growth (Fig. S2D),Sorbitol.10mM,10.9835
same,Growth (Fig. S2D),Sorbitol.1mM,11.0132
same,Growth (Fig. S2D),Sorbitol.5mM,10.8904
